Key:
Assay in all cases: Kd (EC50 corrected by depletion factor)
[1] = target: T1, RBM17 (UniProt Q96I25)
T1 sequence: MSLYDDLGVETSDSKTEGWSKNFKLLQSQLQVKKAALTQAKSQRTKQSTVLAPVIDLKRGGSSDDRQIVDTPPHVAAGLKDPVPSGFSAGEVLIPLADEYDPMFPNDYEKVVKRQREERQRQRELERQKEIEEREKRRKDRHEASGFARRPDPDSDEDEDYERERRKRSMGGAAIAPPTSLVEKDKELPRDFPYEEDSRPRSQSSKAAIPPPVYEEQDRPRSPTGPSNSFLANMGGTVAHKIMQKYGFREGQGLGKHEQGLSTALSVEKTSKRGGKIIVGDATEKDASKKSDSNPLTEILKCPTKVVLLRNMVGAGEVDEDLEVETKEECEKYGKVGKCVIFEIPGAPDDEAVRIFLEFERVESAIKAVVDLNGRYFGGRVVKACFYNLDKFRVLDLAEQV
Method in brief: (§1)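 Kd was calculated as EC50, taken from a four-parameter log-logistic fit, multiplied by a protein-dependent depletion factor. The assay used HEK293-FT lysate (2.5 mg protein/well) pre-incubated for 1 h at 4°C with free RNA oligos (0 nM to 30 μM), then incubated for 30 min at 4°C with the matching oligos bound through a 5′-amino-C6 linker to NHS-Sepharose beads. Bound proteins were measured by label-free LC-MS/MS and normalised to the control.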

[2] = target: T2, LSM1 (UniProt O15116)
T2 sequence: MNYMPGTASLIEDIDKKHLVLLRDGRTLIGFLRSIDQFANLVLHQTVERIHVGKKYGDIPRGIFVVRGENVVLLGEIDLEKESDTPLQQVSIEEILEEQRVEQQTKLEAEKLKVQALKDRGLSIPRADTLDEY
Method in brief: as §1

[3] = target: T3, CPSF3 (UniProt Q9UKF6)
T3 sequence: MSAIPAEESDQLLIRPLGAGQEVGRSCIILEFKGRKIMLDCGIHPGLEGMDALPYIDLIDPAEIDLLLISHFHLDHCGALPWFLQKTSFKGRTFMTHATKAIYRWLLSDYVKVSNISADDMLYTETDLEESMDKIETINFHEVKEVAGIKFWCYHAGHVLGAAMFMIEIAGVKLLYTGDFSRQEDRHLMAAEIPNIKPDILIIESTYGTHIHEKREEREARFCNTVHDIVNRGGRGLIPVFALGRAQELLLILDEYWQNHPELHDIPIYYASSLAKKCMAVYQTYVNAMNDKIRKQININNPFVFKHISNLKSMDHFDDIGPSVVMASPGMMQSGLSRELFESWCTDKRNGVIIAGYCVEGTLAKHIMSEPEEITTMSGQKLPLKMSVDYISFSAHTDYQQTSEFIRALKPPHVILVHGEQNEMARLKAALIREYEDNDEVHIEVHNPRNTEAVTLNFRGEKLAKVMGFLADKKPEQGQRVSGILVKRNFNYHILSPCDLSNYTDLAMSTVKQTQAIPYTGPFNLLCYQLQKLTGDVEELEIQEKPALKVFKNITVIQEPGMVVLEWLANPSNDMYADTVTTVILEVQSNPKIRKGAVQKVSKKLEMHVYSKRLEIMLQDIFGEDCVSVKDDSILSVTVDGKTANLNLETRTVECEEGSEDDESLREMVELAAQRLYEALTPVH
Method in brief: as §1

[4] = target: T4, AQR (UniProt O60306)
T4 sequence: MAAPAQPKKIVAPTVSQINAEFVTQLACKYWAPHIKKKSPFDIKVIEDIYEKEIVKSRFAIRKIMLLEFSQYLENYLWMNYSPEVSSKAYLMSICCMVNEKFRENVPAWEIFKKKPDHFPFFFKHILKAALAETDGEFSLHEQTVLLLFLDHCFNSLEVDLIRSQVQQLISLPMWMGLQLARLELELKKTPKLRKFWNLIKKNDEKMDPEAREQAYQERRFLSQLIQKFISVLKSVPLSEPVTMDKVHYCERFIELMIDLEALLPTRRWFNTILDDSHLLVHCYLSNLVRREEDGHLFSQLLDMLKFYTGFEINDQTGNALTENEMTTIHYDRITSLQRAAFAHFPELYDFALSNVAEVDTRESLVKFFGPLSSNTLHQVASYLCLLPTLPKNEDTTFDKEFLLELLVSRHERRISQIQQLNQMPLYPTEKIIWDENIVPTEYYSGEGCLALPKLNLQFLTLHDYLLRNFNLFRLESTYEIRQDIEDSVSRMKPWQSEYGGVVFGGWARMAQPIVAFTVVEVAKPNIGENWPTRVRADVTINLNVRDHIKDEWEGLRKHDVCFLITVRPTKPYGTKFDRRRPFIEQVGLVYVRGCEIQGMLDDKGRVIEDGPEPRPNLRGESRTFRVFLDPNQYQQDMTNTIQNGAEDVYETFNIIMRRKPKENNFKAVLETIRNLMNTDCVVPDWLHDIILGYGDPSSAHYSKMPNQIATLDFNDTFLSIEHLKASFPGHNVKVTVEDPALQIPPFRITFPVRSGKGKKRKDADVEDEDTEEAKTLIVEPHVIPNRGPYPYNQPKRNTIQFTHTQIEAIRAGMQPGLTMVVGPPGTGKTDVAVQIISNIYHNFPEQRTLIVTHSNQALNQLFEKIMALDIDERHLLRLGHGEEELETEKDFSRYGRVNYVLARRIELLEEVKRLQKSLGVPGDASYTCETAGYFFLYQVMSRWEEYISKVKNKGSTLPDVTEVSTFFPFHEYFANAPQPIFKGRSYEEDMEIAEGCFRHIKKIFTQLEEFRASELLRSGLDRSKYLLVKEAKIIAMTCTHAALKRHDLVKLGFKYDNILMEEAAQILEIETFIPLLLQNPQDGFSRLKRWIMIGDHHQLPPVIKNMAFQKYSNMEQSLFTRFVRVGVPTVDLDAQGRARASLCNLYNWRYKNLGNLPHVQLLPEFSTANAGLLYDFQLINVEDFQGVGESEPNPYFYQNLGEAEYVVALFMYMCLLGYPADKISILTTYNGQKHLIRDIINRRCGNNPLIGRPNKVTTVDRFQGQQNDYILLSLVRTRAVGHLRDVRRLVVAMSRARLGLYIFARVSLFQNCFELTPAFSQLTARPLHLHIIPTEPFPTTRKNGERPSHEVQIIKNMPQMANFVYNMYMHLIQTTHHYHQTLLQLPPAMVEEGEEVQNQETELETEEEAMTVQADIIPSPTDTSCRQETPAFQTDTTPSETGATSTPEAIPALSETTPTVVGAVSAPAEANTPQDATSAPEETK
Method in brief: as §1

Sequence	Kd [1] [nM]	Kd [2] [nM]	Kd [3] [nM]	Kd [4] [nM]
UAUUUAU	59.9	167	270	320
AAUAAA	940	23.2	5.97	213

Reference: the supplement of paper PMC6379048
